The results in this text go back to patent US20130178394A1 (UNIVERSITY OF TOKYO, published 2013).

This test concerns the target T1, biotinylated Avi-His-GB1-E6AP-HECT domain (human, UniProt P06654 228-282; Q05086 495-852, limits assumed, biotin on the Avi tag).
T1 construct: domain: Protein GB1 domain;domain: HECT domain; also called C terminal domain of ubiquitin ligase E6AP
Nature of the test: SPR, BIACORE T100, Avi-His-GB1-E6AP-HECT on streptavidin chip, peptide as analyte. As for the experimental part: The binding constant of MCP11 to E6AP-HECT was analyzed by a surface plasmon resonance using BIACORE T100.
A streptavidin sensor chip (SA chip certified) was used as a sensor chip, an Avi-His-GB1-E6AP-HECT was used as a ligand, and MCP11 was used as an analyte.
(In general: SPR reads the build-up and loss of mass on a sensor chip optically.)

Bridge positions count the residues as written; N and C are the ends. Square brackets hold non-standard residues; d marks the D form. NMeF = CN[C@@H](Cc1ccccc1)C(=O)O; NMeS = CN[C@@H](CO)C(=O)O; Sar = CNCC(=O)O

T1 sequence (P06654 228-282, tags or fused parts left off): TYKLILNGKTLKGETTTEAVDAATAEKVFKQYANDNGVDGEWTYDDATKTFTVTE

B1: MCP11, Cyclo(-Ac-DWCDVMeSGRMeFMeGYMeFPC)G-OH (chemically synthesized cyclic N-methyl peptide) (peptide)
peptide: {CH2CO}-[dW]CDV[NMeS]GR[NMeF][Sar]Y[NMeF]PCG-OH
modifications: thioether N-13
notes: The formula stands in the summary (h-0009)
For the molecule B1, the affinity, expressed as Kd, was 0.5 nM.
